In patent US20250066499A1 (SUNSHINE GUOJIAN PHARMACEUTICAL SHANGHAI, published 2025) one finds Top data, which are given here for one molecule.

Holding throughout (experiment): ELISA, high plateau value (OD 450 nm)
A general note: ELISA stands for enzyme-linked immunosorbent assay.

One assay has as its target T1, CD73-ND-Y132A (human, UniProt P21589 27-317).
T1 construct: Alanine mutant of CD73-ND
T1 sequence: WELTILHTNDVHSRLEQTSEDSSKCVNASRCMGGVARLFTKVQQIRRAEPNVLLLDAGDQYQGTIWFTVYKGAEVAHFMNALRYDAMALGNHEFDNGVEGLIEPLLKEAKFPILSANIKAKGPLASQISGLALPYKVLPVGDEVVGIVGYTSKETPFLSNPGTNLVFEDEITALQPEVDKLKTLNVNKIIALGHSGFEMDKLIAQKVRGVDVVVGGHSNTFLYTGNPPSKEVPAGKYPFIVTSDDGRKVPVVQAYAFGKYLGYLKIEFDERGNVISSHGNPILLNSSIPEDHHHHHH
As to the method: (§1) The ELISA plates were coated with SA protein diluted to 1.5 μg/mL in coating buffer (50 mM carbonate coating buffer, pH 9.6) and incubated overnight at 4° C. The supernatant was discarded, and the plates were washed three times with PBST. Then, 5% skimmed milk powder prepared with PBS was added for blocking and the plates were incubated for 2 h at 37° C. After washing the plates once with PBST, CD73-biotin protein (prepared by biotinylating CD73-His protein according to the EZ-Link NHS-Biotin Reagent instructions) was diluted to 0.5 μg/mL and added at 100 μL/well for incubation at room temperature for 1 h. The plates were washed three times with PBST, and the prepared murine-derived monoclonal antibodies against human CD73 were serially diluted with 1% BSA buffer prepared with PBST and added to the ELISA plates at 100 μl/well. The plates were incubated at 37° C. for 1 h. After washing the plates three times with PBST, HRP-labeled goat anti-mouse IgG secondary antibody was added and the plates were incubated for 30 min at 37° C. After washing the plates three times with PBST, the residual droplets were patted dry on absorbent paper as much as possible. Then, 100 μl of TMB color developing solution was added to each well, and the plates were incubated in the dark at room temperature for 5 min for color development. Subsequently, 50 μl of 2M H₂SO₄ stop solution was added to each well to terminate the substrate reaction. The OD values were read at 450 nm using a multimode microplate reader to analyze the binding ability of the tested antibodies to the target antigen human CD73-His.
(§2) Referring to the experimental method in Example 3, the affinity of 48A11-HuV33 for various mutant proteins of CD73-ND was determined. The SA protein was diluted to 1 μg/mL for coating the ELISA plates, and the biotinylated CD73 protein (CD73-biotin) was used at a concentration of 0.1 μg/mL.

The target in another assay is T2, CD73-ND-his (human, UniProt P21589 27-317).
T2 construct: Biotinylated and captured on streptavidin in the ELISA
T2 sequence: T1 sequence with A132Y
The protocol: as §1, §2

The target of the next assay is T3, CD73-ND-V137A (human, UniProt P21589 27-317).
T3 construct: Alanine mutant of CD73-ND
T3 sequence: T1 sequence with A132Y, V137A
The protocol:
as §1, §2

In another assay the target is T4, CD73-ND-Y135A (human, UniProt P21589 27-317).
T4 construct: Alanine mutant of CD73-ND
T4 sequence: T1 sequence with A132Y, Y135A
As to the method: as §1, §2

The target in another assay is T5, CD73-ND-K136A (human, UniProt P21589 27-317).
T5 construct: Alanine mutant of CD73-ND
T5 sequence: T1 sequence with A132Y, K136A
As to the method: as §1, §2

The next assay deals with T6, CD73-ND-L138A (human, UniProt P21589 27-317).
T6 construct: Alanine mutant of CD73-ND
T6 sequence: T1 sequence with A132Y, L138A
As to the method: as §1, §2

Positions count from the first letter of the chain named.

B1: 48A11-HuV33 (antibody, human IgG4, V domains shown)
VH: QVQLVQSGAEVKKPGASVKVSCKASGYTFTSYWMHWVRQAPGQGLEWIGEINPSIGRTNYNEKFKSRVTLTRDTSTSTAYMELSSLRSEDTAVYYCARRVYGTMDYWGQGTLVTVSS
VL: DIQMTQSPSSLSASVGDRVTITCKASQDINSYLSWFQQKPGKSPKLLIYRANIWVDGVPSRFSGSGSGQDYTFTISSLQPEDIATYYCLQYDELYTFGQGTKVEIK
notes: Humanized
Regarding B1, the Top turned out to be 0.254 in the assay with CD73-ND-Y132A; 2.08 with CD73-ND-his; 1.6 in the assay with CD73-ND-V137A; 1.96 in the assay with CD73-ND-Y135A; 2.12 with CD73-ND-K136A; 1.91 with CD73-ND-L138A.
